# Results: paper PMC6764986 (2019)
# Where no end group is shown, it is not given here.
# B1: NbALFA (non-tagged) (VHH)
# VHH: EVQLQESGGGLVQPGGSLRLSCTASGVTISALNAMAMGWYRQAPGERRVMVAAVSERGNAMYRESVQGRFTVTRDFTNKMVSLQMDNLKPEDTAVYYCHVLEDRVDSFHDYWGQGTQVTVSS
# B2: ALFA-tagged target immobilized for SPR (TST-NEDD8-ALFA or GFP-ALFA) (other)
# chain: SRLEEELRRRLTE
# Experiments:
# [1] = target: T1, ALFA-tagged target immobilized for SPR (TST-NEDD8-ALFA or GFP-ALFA) (synthetic construct, not fully specified); experiment: SPR; ligand GFP-ALFA
# T1 chain: SRLEEELRRRLTE
# NbALFAPE = experiment: SPR; ligand TST-NEDD8-ALFA
Binder,koff [1] [s⁻¹],Kd (NbALFAPE) [nM],koff (NbALFAPE) [s⁻¹]
B1,9.4e-06,,
B2,,11,0.0029
